We go through two substances from PMC3462613.

Test in all cases: fluorescence polarisation
Test [1] concerns the target FITC-labelled SMN^26–51, wild type (human) (UniProt Q16637).
Test [2] deals with FITC-labelled SMN^26–51 D44V (human) (UniProt Q16637).
Test [3] concerns the target FITC-labelled SMN^26–51, wild type (human) (UniProt Q16637). This is another data set of the same source.
The target in test [4] is FITC-labelled SMN^26–51 D44V (human) (UniProt Q16637). This is another data set of the same source.
In test [5] the target is FITC-labelled SMN^26–51, wild type (human) (UniProt Q16637). The source holds these as a separate data set.
Test [6] addresses FITC-labelled SMN^26–51 K41A (human) (UniProt Q16637).
Test [7] deals with FITC-labelled SMN^26–51 Y43A (human) (UniProt Q16637).
Test [8] has as its target FITC-labelled SMN^26–51 D35A (human) (UniProt Q16637).
For test [9], the target named is FITC-labelled SMN^26–51, wild type (human) (UniProt Q16637). This is another data set of the same source.
Test [10] addresses SMN^26–51 peptide containing phosphoserine at positions 28 and 31 (human) (UniProt Q16637).
Test [11] concerns the target FITC-labelled SMN^26–51 L39A (human) (UniProt Q16637).
Test [12] addresses FITC-labelled SMN^26–51 D36A (human) (UniProt Q16637).
The target in test [13] is FITC-labelled SMN^26–51 D44V (human) (UniProt Q16637). This is another data set of the same source.
Test [14] addresses FITC-labelled SMN^26–51 W34A (human) (UniProt Q16637).
The target in test [15] is FITC-labelled SMN^26–51 A46N (human) (UniProt Q16637).
Test [16] has as its target FITC-labelled SMN^26–51 D44A (human) (UniProt Q16637).
The target of test [17] is FITC-labelled SMN^26–51, wild type (human) (UniProt Q16637). This is another data set of the same source.
Test [18] shares this target. This is another data set of the same source.

Where two headings read alike, the source gives them in different places.

Consider Gemin2^95–280 (domain or fragment), for which the equilibrium dissociation constant (Kd) was 2.3 nM in test [1]; 1.5 nM in test [2]; 2.2 nM in test [3]; 1800 nM in test [4]; 180 nM in test [5]; 4.8 nM in test [6]. For the same substance, the Kd in test [7] was 510 nM; in test [8], 6.8 nM; in [9] it was 3.3 nM; in test [10], 4.2 nM; in test [11], 74 nM; in test [12], 8.3 nM. The Kd was 8.4 nM in test [13]; 16 nM in test [14]; 42 nM in test [15]; 5.3 nM in test [16]; 5.2 nM in test [17]; 2.4 nM in [18].

Take Gemin2 (12–280) (natural protein): in test [9], the Kd is 7 nM.
